Source: patent US20180127483A1 (CHILDREN S MEDICAL CENTER, published 2018)

Target: T1, recombinant human Flt-1/Fc chimera (R&D System 321-FL) (human, UniProt P17948 27-758)
T1 construct: extracellular domain; Bought from R&D Systems; also called VEGF-R1 extracellular domain Ig fusion; full-length VEGF-Receptor 1 extracellular domain; Fc part of the bought chimera not given
Test: solution equilibrium: 10 pM human VEGF165 incubated overnight with 0.05-1000 pM binder, unbound VEGF165 measured by ELISA, curve fit
Description: FIG. 4. Binding affinity analysis of VEGF-binding proteins. In brief, a fixed concentration of human VEGF₁₆₅ (10 pM) was incubated overnight at room temperature with varying concentrations (0.05 pM to 1000 pM) of VEGF binding proteins. 20 hours later, concentration of unbound VEGF₁₆₅ was measured by ELISA. Binding curves were fitted using Prizm software.

T1 sequence (P17948 27-758, change not shown): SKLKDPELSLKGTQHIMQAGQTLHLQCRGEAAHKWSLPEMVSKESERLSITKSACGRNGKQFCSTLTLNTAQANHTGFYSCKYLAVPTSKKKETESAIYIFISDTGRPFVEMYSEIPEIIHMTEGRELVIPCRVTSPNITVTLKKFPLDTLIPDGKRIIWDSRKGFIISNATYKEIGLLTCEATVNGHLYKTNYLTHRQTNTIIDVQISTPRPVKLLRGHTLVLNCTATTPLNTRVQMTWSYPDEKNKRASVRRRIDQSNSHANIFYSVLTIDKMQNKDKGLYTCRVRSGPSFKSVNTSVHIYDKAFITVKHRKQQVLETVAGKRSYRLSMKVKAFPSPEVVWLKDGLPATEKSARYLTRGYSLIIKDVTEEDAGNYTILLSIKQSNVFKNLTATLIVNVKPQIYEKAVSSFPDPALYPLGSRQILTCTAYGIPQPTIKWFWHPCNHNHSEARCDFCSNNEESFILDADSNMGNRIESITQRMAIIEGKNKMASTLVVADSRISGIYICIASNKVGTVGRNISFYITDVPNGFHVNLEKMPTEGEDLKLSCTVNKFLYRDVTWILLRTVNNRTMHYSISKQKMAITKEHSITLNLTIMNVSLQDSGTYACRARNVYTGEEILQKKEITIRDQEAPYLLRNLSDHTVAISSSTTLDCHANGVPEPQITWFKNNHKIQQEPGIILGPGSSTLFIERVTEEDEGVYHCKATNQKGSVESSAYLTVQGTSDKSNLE

B1: human VEGF165 (ligand, UniProt P15692-4 27-191, looked up)
chain: APMAEGGGQNHHEVVKFMDVYQRSYCHPIETLVDIFQEYPDEIEYIFKPSCVPLMRCGGCCNDEGLECVPTEESNITMQIMRIKPHQGQHIGEMSFLQHNKCECRPKKDRARQENPCGPCSERRKHLFVQDPQTCKCSCKNTDSRCKARQLELNERTCRCDKPRR
A Kd of 25.9 pM was found for B1 in this work.
